What was measured:
[1] = target: Human CD64 (FcγRI), Sino Biological 10256-H08H (human, UniProt P12314 16-288); experiment: SPR Biacore 8K+, receptor captured by anti-His, antibody as analyte
[2] = target: T1, Human CD32a (167 Arg), Sino Biological 10374-H08H (human, UniProt P12318 34-218); experiment: as above
T1 construct: also called FcγRIIa167R
T1 sequence (looked up): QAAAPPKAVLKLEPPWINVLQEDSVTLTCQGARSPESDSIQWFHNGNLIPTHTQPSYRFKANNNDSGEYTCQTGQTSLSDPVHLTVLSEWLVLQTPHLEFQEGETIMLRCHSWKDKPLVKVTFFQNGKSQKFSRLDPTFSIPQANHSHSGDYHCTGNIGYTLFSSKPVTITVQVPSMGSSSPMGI

[3] = target: T2, Human CD32a (167 His), Sino Biological 10374-H08H1 (human, UniProt P12318 34-218); experiment: as above
T2 construct: also called FcγRIIa167H
T2 sequence (looked up): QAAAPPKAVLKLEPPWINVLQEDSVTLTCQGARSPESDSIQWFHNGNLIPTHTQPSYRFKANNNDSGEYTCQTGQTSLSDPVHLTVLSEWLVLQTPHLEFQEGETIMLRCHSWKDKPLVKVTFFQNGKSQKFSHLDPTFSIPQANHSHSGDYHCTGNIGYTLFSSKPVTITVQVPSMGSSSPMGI

[4] = target: T3, Human CD16a (176F), Sino Biological 10389-H08H (human, UniProt P08637 17-208); experiment: as above
T3 construct: also called FcγRIIIa176F
T3 sequence (P08637 17-208 limits assumed): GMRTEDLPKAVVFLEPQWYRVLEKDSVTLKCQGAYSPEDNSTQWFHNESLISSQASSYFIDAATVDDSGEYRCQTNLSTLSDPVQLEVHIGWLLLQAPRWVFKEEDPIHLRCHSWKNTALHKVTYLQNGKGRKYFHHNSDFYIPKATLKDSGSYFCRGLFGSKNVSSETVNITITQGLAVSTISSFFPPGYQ

[5] = target: T4, Human CD32b, Sino Biological 10259-H08H (human, UniProt P31994 43-217); experiment: as above
T4 construct: also called FcγRIIb
T4 sequence (looked up): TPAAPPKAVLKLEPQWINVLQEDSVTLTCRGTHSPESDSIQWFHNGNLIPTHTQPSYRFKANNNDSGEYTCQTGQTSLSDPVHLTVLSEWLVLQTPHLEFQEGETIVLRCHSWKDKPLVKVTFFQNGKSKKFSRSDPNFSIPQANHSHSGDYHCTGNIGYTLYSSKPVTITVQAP

[6] = target: T5, Human CD16b (NA2 allotype), Sino Biological 11046-H08H (human, UniProt O75015 17-200); experiment: as above
T5 construct: also called FcγRIIIb
T5 sequence (O75015 17-200 N65S limits assumed): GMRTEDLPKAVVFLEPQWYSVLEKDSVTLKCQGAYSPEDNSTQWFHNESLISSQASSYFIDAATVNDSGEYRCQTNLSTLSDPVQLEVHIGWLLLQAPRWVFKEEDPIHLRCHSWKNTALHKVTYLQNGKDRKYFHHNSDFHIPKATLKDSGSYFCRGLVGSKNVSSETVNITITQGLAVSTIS

[7] = target: T6, Human CD16a (F176V), Sino Biological 10389-H08H1 (human, UniProt P08637 17-208); experiment: as above
T6 construct: also called FcγRIIIa176V
T6 sequence (P08637 17-208 F176V limits assumed): as the sequence (P08637 17-208 limits assumed) above, with F160V counted along it

[8] = target: T7, human OX40 (TNFRSF4, CD134) on cells (human, UniProt P43489 29-277); experiment: flow cytometry on Jurkat-NF-κB-OX40 cells, detection with PE anti-human IgG Fc, occupancy in % of the saturating dose; in the presence of 0.07 µg/ml OX40L; time point not stated on the sheet
T7 construct: also called OX40 on HPB-ALL cells; Jurkat-NFκB-OX40 cells
T7 sequence: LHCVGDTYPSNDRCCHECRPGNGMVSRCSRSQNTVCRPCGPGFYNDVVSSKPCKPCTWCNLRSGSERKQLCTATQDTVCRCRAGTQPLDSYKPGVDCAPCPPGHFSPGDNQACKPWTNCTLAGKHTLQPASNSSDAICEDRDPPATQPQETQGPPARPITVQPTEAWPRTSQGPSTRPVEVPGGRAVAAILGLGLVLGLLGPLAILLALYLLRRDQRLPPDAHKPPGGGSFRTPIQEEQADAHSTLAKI

[9] = target: T7, human OX40 (TNFRSF4, CD134) on cells; experiment: cell-based or functional assay
[10] = target: T7, human OX40 (TNFRSF4, CD134) on cells; experiment: flow cytometry on Jurkat-NF-κB-OX40 cells, detection with PE anti-human IgG Fc, occupancy in % of the saturating dose; in the presence of 0.3 µg/ml OX40L; time point not stated on the sheet
[11] = target: T7, human OX40 (TNFRSF4, CD134) on cells; experiment: cell-based or functional assay; remark: listed apart in the source
[12] = target: T7, human OX40 (TNFRSF4, CD134) on cells; experiment: cell-based or functional assay; remark: listed apart in the source
[13] = target: T8, Human FcRn protein (Acro Biosystems, catalog NO: FCN-H52W7) (human, UniProt P55899 24-297; P61769 21-119); experiment: SPR Biacore 8K+, antibody immobilised, FcRn analyte, pH 6.0; pH 6.0
T8 construct: also called huFcRn
T8 sequence (P55899 24-297 limits assumed, chain 1 of 2): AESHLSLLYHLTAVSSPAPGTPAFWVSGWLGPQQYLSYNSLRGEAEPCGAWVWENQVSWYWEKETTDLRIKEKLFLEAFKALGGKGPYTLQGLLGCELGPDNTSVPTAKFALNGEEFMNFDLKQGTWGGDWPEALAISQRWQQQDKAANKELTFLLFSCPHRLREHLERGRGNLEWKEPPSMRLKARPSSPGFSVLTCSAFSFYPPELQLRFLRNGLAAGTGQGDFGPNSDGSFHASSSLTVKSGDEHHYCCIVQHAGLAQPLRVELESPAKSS
T8 sequence (P61769 21-119 limits assumed, chain 2 of 2): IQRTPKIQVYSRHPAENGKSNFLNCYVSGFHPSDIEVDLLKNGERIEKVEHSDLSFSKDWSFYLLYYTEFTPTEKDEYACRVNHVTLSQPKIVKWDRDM

[14] = target: T7, human OX40 (TNFRSF4, CD134) on cells; experiment: flow cytometry on Jurkat-NF-κB-OX40 cells, detection with PE anti-human IgG Fc, occupancy in % of the saturating dose; no OX40L; time point (0 h or 5 h) not stated on the sheet
[15] = target: T7, human OX40 (TNFRSF4, CD134) on cells; experiment: cell-based or functional assay; remark: listed apart in the source
[16] = target: T7, human OX40 (TNFRSF4, CD134) on cells; experiment: cell-based or functional assay; remark: listed apart in the source

Sequence of Human CD64 (FcγRI), Sino Biological 10256-H08H (P12314 16-288 limits assumed): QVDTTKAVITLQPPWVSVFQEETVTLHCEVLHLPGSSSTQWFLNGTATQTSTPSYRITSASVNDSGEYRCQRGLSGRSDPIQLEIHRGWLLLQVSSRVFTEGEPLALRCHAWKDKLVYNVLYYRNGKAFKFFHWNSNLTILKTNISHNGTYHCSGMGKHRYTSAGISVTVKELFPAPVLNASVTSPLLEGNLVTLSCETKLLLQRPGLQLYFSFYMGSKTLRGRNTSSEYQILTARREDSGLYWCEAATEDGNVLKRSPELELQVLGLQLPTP

B1: MAB1 IgG1 (antibody)
heavy: not shown
light: EIVLTQSPATLSLSPGERATLSCRASSSVSYMHWYQQKPGQAPRPWIYATSNRATGIPARFSGSGSGTDYTLTISSLEPEDFAVYYCQQFGAWPWTFGQGTKVEIKRTVAAPSVFIFPPSDEQLKSGTASVVCLLNNFYPREAKVQWKVDNALQSGNSQESVTEQDSKDSTYSLSSTLTLSKADYEKHKVYACEVTHQGLSSPVTKSFNRGEC
notes: Human IgG1, kappa
- Kd [1]: 5.4 nM
- Kd [2]: 6140 nM
- Kd [3]: 4030 nM
- Kd [4]: 334 nM
- Kd [5]: 11600 nM
- Kd [6]: 3630 nM
- Kd [7]: 297 nM
- EC50 (read off the curve) [8]: ~0.2 nM
- EC50, inhibition of IFNγ release [9]: 14.6 nM
- EC50, inhibition of IL-2 release [9]: 2.36 nM
- EC50, inhibition of IL-4 release [9]: 2.83 nM
- EC50, inhibition of IL-5 release [9]: 21.3 nM
- EC50, inhibition of IL-8 release [9]: 9.19 nM
- EC50, inhibition of IL-10 release [9]: 28 nM
- EC50, inhibition of IL-13 release [9]: 6.2 nM
- EC50, inhibition of IL-17a release [9]: 24.4 nM
- EC50, inhibition of IL-21 release [9]: 2.56 nM
- EC50, inhibition of IL-22 release [9]: 9.19 nM
- EC50, inhibition of IL-31 release [9]: 2.51 nM
- EC50, inhibition of TNF-α release [9]: 4.1 nM
- Fold diff to GBR830, IFNγ [9]: 4.6 fold
- Fold diff to GBR830, IL-2 [9]: 3.4 fold
- Fold diff to GBR830, IL-4 [9]: 15.8 fold
- Fold diff to GBR830, IL-5 [9]: 3 fold
- Fold diff to GBR830, IL-8 [9]: 6.3 fold
- Fold diff to GBR830, IL-10 [9]: 2.4 fold
- Fold diff to GBR830, IL-13 [9]: 11.2 fold
- Fold diff to GBR830, IL-21 [9]: 18.5 fold
- Fold diff to GBR830, IL-31 [9]: 11.9 fold
- Fold diff to GBR830, TNF-α [9]: 10.6 fold
- EC50 (read off the curve) [10]: ~0.2 nM
- ADCC EC50, regulatory T cells (LDH release) [11]: 0.28 nM
- Fold diff to MAB10, ADCC EC50, regulatory T cells [11]: 8.25 fold
- Fold diff to MAB10, maximum ADCC, activated T cells [12]: 1.31 fold
- Maximum killing (%), ADCC, activated T cells [12]: 45.6%
- Kd [13]: 102 nM
- EC50 (read off the curve) [14]: ~0.2 nM
- ADCC EC50, activated T cells (LDH release) [15]: 0.27 nM
- Fold diff to MAB10, ADCC EC50, activated T cells [15]: 0.37 fold
- Fold diff to MAB10, maximum ADCC, regulatory T cells [16]: 2.27 fold
- Maximum killing (%), ADCC, regulatory T cells [16]: 61.9%

B2: GBR 830 (telazorlimab) (antibody, human IgG1, kappa)
heavy: not shown
light: EIVLTQSPATLSLSPGERATLSCRASSSVSYMHWYQQKPGQAPRPWIYATSNRATGIPARFSGSGSGTDYTLTISSLEPEDFAVYYCQQWSSNPWTFGQGTKVEIKRTVAAPSVFIFPPSDEQLKSGTASVVCLLNNFYPREAKVQWKVDNALQSGNSQESVTEQDSKDSTYSLSSTLTLSKADYEKHKVYACEVTHQGLSSPVTKSFNRGEC
notes: IgG1; also called Antibody 830; ISB830
- Kd [1]: 6.2 nM
- Kd [2]: 4690 nM
- Kd [3]: 3410 nM
- Kd [4]: 365 nM
- Kd [5]: 7260 nM
- Kd [6]: 3220 nM
- Kd [7]: 330 nM
- EC50 (read off the curve) [8]: ~0.5 nM
- EC50, inhibition of IFNγ release [9]: 66.7 nM
- EC50, inhibition of IL-2 release [9]: 7.92 nM
- EC50, inhibition of IL-4 release [9]: 44.8 nM
- EC50, inhibition of IL-5 release [9]: 63.6 nM
- EC50, inhibition of IL-8 release [9]: 58.2 nM
- EC50, inhibition of IL-10 release [9]: 66.8 nM
- EC50, inhibition of IL-13 release [9]: 69.6 nM
- EC50, inhibition of IL-21 release [9]: 47.3 nM
- EC50, inhibition of IL-31 release [9]: 29.9 nM
- EC50, inhibition of TNF-α release [9]: 43.3 nM
- EC50 (read off the curve) [10]: ~0.7 nM
- ADCC EC50, regulatory T cells (LDH release) [11]: 2.25 nM
- Fold diff to MAB10, ADCC EC50, regulatory T cells [11]: 1.03 fold
- Fold diff to MAB10, maximum ADCC, activated T cells [12]: 1.14 fold
- Maximum killing (%), ADCC, activated T cells [12]: 39.6%
- Kd [13]: 112 nM
- EC50 (read off the curve) [14]: ~0.4 nM
- ADCC EC50, activated T cells (LDH release) [15]: 0.13 nM
- Fold diff to MAB10, ADCC EC50, activated T cells [15]: 0.77 fold
- Fold diff to MAB10, maximum ADCC, regulatory T cells [16]: 1.61 fold
- Maximum killing (%), ADCC, regulatory T cells [16]: 44.1%

B3: MAB10 (antibody, human IgG1, kappa)
heavy: QVTLKESGPALVKPTQTLTLTCSFSGFSLSTSGMGVGWIRQPPGKALEWIAHIWWDDDKYYNTALKTRLTISKDTSKNQVVLTMTNMDPVDTATYYCARIDWDGFAYWGQGTLVTVSSASTKGPSVFPLAPSSKSTSGGTAALGCLVKDYFPEPVTVSWNSGALTSGVHTFPAVLQSSGLYSLSSVVTVPSSSLGTQTYICNVNHKPSNTKVDKKVEPKSCDKTHTCPPCPAPELLGGPSVFLFPPKPKDTLYITREPEVTCVVVDVSHEDPEVKFNWYVDGVEVHNAKTKPREEQYNSTYRVVSVLTVLHQDWLNGKEYKCKVSNKALPAPIEKTISKAKGQPREPQVYTLPPSRDELTKNQVSLTCLVKGFYPSDIAVEWESNGQPENNYKTTPPVLDSDGSFFLYSKLTVDKSRWQQGNVFSCSVMHEALHNHYTQKSLSLSPGK
light: EIVLTQSPATLSLSPGERATLSCRASSSVSYMHWYQQKPGQAPRPWIYATSNRATGIPARFSGSGSGTDYTLTISSLEPEDFAVYYCQQFGAWPWTFGQGTKVEIKRTVAAPSVFIFPPSDEQLKSGTASVVCLLNNFYPREAKVQWKVDNALQSGNSQESVTEQDSKDSTYSLSSTLTLSKADYEKHKVYACEVTHQGLSSPVTKSFNRGEC
notes: MAB1 with M252Y, S254T and T256E (EU numbering) in the IgG1 Fc; also called MAB1 Heavy Chain + YTE
- Kd [1]: 8.7 nM
- binding result [2]: no binding (tested: 5,000 nM highest antibody concentration)
- Kd [3]: 12700 nM
- Kd [4]: 992 nM
- binding result [5]: no binding (tested: 5,000 nM highest antibody concentration)
- Kd [6]: 15600 nM
- Kd [7]: 816 nM
- EC50 (read off the curve) [8]: ~0.3 nM
- EC50, inhibition of IFNγ release [9]: 11.8 nM
- EC50, inhibition of IL-2 release [9]: 2.63 nM
- EC50, inhibition of IL-4 release [9]: 2.88 nM
- EC50, inhibition of IL-5 release [9]: 16.4 nM
- EC50, inhibition of IL-8 release [9]: 9.55 nM
- EC50, inhibition of IL-10 release [9]: 34.1 nM
- EC50, inhibition of IL-13 release [9]: 5.3 nM
- EC50, inhibition of IL-17a release [9]: 23.5 nM
- EC50, inhibition of IL-21 release [9]: 2.75 nM
- EC50, inhibition of IL-22 release [9]: 7.03 nM
- EC50, inhibition of IL-31 release [9]: 2 nM
- EC50, inhibition of TNF-α release [9]: 4.2 nM
- Fold diff to GBR830, IFNγ [9]: 5.7 fold
- Fold diff to GBR830, IL-2 [9]: 3 fold
- Fold diff to GBR830, IL-4 [9]: 15.5 fold
- Fold diff to GBR830, IL-5 [9]: 3.9 fold
- Fold diff to GBR830, IL-8 [9]: 6.1 fold
- Fold diff to GBR830, IL-10 [9]: 2 fold
- Fold diff to GBR830, IL-13 [9]: 13.1 fold
- Fold diff to GBR830, IL-21 [9]: 17.2 fold
- Fold diff to GBR830, IL-31 [9]: 14.9 fold
- Fold diff to GBR830, TNF-α [9]: 10.3 fold
- EC50 (read off the curve) [10]: ~0.4 nM
- ADCC EC50, regulatory T cells (LDH release) [11]: 2.31 nM
- Maximum killing (%), ADCC, activated T cells [12]: 34.9%
- Kd [13]: 11.5 nM
- EC50 (read off the curve) [14]: ~0.3 nM
- ADCC EC50, activated T cells (LDH release) [15]: 0.1 nM
- Maximum killing (%), ADCC, regulatory T cells [16]: 27.3%

Source: patent US20250353921A1 (ASTRIA THERAPEUTICS, published 2025)
